T1: full-length KIF5B-GFP with C-terminal Strep-tag (human, UniProt P33176 1-963)
T1 sequence (looked up): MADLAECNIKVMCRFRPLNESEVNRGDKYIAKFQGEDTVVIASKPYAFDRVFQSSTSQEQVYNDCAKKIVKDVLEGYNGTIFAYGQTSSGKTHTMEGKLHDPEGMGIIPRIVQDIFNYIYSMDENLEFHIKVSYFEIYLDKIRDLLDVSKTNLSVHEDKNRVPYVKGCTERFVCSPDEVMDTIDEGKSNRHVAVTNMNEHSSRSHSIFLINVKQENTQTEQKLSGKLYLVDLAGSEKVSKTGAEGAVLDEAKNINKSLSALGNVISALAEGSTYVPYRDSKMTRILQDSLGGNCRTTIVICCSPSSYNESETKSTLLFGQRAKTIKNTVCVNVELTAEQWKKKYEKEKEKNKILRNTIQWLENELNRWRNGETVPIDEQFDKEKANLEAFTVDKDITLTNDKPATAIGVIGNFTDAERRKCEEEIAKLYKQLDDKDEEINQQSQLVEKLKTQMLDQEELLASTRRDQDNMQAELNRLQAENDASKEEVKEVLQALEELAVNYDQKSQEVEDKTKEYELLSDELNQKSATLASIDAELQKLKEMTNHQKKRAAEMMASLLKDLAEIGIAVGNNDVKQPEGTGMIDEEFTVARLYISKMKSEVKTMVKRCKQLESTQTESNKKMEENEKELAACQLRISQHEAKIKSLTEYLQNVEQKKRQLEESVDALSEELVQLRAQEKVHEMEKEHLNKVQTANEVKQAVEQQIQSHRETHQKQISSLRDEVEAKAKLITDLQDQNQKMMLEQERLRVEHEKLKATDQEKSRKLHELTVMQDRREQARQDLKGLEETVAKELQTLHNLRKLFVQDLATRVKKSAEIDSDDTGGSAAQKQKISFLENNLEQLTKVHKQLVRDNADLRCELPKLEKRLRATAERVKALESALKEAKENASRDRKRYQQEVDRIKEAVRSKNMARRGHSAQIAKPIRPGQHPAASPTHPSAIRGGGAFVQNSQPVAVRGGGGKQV

B1: Alexa Fluor 647–labeled SNAP-tag-MAP7D3, full length (natural protein, UniProt Q8IWC1 1-876, looked up)
chain: MMADGAAAGAGGSPSLRELRARMVAAANEIAKERRKQDVVNRVATHSSNIRSTFKPVIDGSMLKNDIKQRLARERREEKRRQQDANKETQLLEKERKTKLQYEKQMEERQRKLKERKEKEEQRRIAAEEKRHQKDEAQKEKFTAILYRTLERRRLADDYQQKRWSWGGSAMANSESKTANKRSASTEKLEQGTSALIRQMPLSSAGLQNSVAKRKTDKERSSSLNRRDSNLHSSTDKEQAERKPRVTGVTNYVMQYVTVPLRKCTSDELRAVMFPMSTMKIPPQTKVEESPLEKVETPPKASVDAPPQVNVEVFCNTSMEASPKAGVGMAPEVSTDSFPVVSVDVSPVVSTYDSEMSMDASPELSIEALPKVDLETVPKVSIVASPEASLEAPPEVSLEALPEVSVEAAPEGSLEAPPKGSAEVAPKESVKGSPKESMEASPEAMVKASPKTSLEASMEASPKAKARDAPKKSEMDKQALIPIAKKRLSSYTECYKWSSSPENACGLPSPISTNRQIQKNCPPSPLPLISKQSPQTSFPYKIMPIQHTLSVQSASSTVKKKKETVSKTTNRCEALSQRHMIYEESGNKSTAGIMNAEAATKILTELRRLAREQREKEEEERQREEMQQRVIKKSKDMAKEAVGGQAEDHLKLKDGQQQNETKKKKGWLDQEDQEAPLQKGDAKIKAQEEADKRKKEHERIMLQNLQERLERKKRIEEIMKRTRKTDVNASKVTETSSHDIYEEAEADNEESDKDSLNEMFPSAILNGTGSPTKFKMPFNNAKKMTHKLVFLEDGTSQVRKEPKTYFNGDLKNFRQKSMKDTSIQEVVSRPSSKRMTSHTTKTRKADETNTTSRSSAQTKSEGFHDILPKSSDTFRQ
modifications: Alexa Fluor 647 on the SNAP-tag
B2: K370-GFP with C-terminal Strep-tag, purified (domain or fragment)
chain: not shown
notes: kinesin-1 heavy chain KIF5B, human, residues 1-370; pEGFP-N1 vector; also called KIF5B 1–370; source: HEK293T, transfected, purified (Strep(II)-streptactin); not shown: GFP, C-terminal, kept
B3: K560-GFP with C-terminal Strep-tag, purified (domain or fragment, human, UniProt P33176 1-560, looked up)
chain: MADLAECNIKVMCRFRPLNESEVNRGDKYIAKFQGEDTVVIASKPYAFDRVFQSSTSQEQVYNDCAKKIVKDVLEGYNGTIFAYGQTSSGKTHTMEGKLHDPEGMGIIPRIVQDIFNYIYSMDENLEFHIKVSYFEIYLDKIRDLLDVSKTNLSVHEDKNRVPYVKGCTERFVCSPDEVMDTIDEGKSNRHVAVTNMNEHSSRSHSIFLINVKQENTQTEQKLSGKLYLVDLAGSEKVSKTGAEGAVLDEAKNINKSLSALGNVISALAEGSTYVPYRDSKMTRILQDSLGGNCRTTIVICCSPSSYNESETKSTLLFGQRAKTIKNTVCVNVELTAEQWKKKYEKEKEKNKILRNTIQWLENELNRWRNGETVPIDEQFDKEKANLEAFTVDKDITLTNDKPATAIGVIGNFTDAERRKCEEEIAKLYKQLDDKDEEINQQSQLVEKLKTQMLDQEELLASTRRDQDNMQAELNRLQAENDASKEEVKEVLQALEELAVNYDQKSQEVEDKTKEYELLSDELNQKSATLASIDAELQKLKEMTNHQKKRAAEMMASLLK
notes: kinesin-1 heavy chain KIF5B, human, residues 1-560; pTT5 vector; also called KIF5B-560; source: HEK293T, transfected, purified (Strep(II)-streptactin, high-salt wash); not shown: GFP, C-terminal, kept
B4: KIF5B fragment (minimal binding construct for SEC-MALS and ITC) (domain or fragment)
chain: CEEEIAKLYKQLDDKDEEINQQSQLVEKLKTQMLDQEELLASTRRDQDNMQAELNRLQAENDASKEEVKEVLQALEELAVNYDQKSQEVEDKTKEYELLSDEL

Legend:
[1] = biological target: B3; assay: cell-based or functional assay
[2] = biological target: T1, full-length KIF5B-GFP with C-terminal …; assay: cell-based or functional assay
[3] = biological target: the molecule itself; assay: single-molecule fluorescence intensity analysis (TIRF); intensity of GFP-tagged kinesins moving on MTs compared with monomeric GFP, with or without MAP7 proteins; 30°C
[4] = biological target: the molecule itself; assay: SEC-MALS; Superdex 200 10/300, 10 mM Tris HCl pH 7.5, 150 mM NaCl, 20°C; 30 µl of protein at 5 mg/ml injected

Binder: B1
landing frequency of K560-GFP on MAP-decorated dynamic MTs in vitro, increasing MAP concentrations, against K560 alone [1]: ≤ 23.6 fold
processivity (run length) of K560-GFP on dynamic MTs in vitro [1]: 2 fold
events of full-length KIF5B-GFP on dynamic MTs in vitro (short binding events and landing followed by processive movement), with MAP against kinesin alone [2]: ≥ 60 fold
run length of full-length KIF5B-GFP on dynamic MTs in vitro, with MAP against kinesin alone [2]: ~1.6 fold

Binder: B2
stoichiometry N [3]: 2

Binder: B3
stoichiometry N [3]: 2

Binder: B4
stoichiometry N [4]: 2
